According to patent US20120045785A1:

Assays:
[1] = molecular target: HtubA/B dimer (hybrid bacterial-bovine tubulin heterodimer) (Prosthecobacter dejongeii); assay: cell-based or functional assay
[2] = molecular target: eukaryotic microtubules; assay: cell-based or functional assay

HtubA/B dimer (hybrid bacterial-bovine tubulin heterodimer) (Prosthecobacter dejongeii), sequence (chain, as listed by the source, chain 1 of 2): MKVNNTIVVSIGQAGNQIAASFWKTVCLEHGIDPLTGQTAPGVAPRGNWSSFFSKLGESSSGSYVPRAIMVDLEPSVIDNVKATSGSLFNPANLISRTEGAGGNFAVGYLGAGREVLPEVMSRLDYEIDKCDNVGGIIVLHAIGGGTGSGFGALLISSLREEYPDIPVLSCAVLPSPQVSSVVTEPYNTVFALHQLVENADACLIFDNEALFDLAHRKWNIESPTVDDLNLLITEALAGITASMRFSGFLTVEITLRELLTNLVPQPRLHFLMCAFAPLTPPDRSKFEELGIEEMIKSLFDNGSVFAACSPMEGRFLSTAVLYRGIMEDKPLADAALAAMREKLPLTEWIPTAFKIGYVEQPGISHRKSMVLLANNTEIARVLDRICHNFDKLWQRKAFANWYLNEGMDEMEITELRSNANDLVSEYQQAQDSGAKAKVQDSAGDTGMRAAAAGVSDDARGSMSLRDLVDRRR
HtubA/B dimer (hybrid bacterial-bovine tubulin heterodimer) (Prosthecobacter dejongeii), sequence (chain, as listed by the source, chain 2 of 2): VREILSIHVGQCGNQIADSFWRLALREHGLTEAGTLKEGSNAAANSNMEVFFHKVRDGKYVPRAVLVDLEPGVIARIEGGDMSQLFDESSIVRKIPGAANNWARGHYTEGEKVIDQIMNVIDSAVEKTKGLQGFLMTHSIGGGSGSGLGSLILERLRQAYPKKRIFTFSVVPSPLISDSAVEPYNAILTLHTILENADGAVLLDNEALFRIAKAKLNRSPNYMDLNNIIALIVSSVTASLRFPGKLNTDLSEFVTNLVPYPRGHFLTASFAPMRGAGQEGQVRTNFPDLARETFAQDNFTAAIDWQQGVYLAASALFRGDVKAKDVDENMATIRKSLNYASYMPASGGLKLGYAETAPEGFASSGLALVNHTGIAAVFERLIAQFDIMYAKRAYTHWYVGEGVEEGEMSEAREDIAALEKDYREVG

Substance: Eg5 (a kinesin-5) motor domain (enzyme)
- rate of ATP binding (MANT-ATP, stopped-flow) [1]: 265 s⁻¹
- rate of ATP binding (MANT-ATP, stopped-flow) [2]: 25 to 30 s⁻¹
